Data on ten sequences can be found in a protein production outcome set (Wang et al. 2014).
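Note: failed if final PepcDB status was selected cloned or expressed and not failed if soluble or beyond.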

The nature of this series: label from the status in PepcDB records.
Take “METKGTGMTVNTVDVSAGRAQQVLREGWAAQRAGALTTSWMLHGRPGVGKTEIVRQLAAEQGARFYDLRLTTIESQDLRGLPYYDHETKKTQWYRPEDLPDDPDRPSLLFLDELTAAPPHLHPAVYGLLLERRVGPHILPDNVFLVAAGNMVEDGAVAYEMGTALSDRLIHLQVRATASDWLESYAVPRTLHPAVLAFIRMRPDLLETTAEALDRGLMISTTPRSWDRVSRIMGAVQDRALRRIMVAGTVGEAVAAEFMLVADDIEASVSVERLLNAAPHERIMLYPESMHGLHALIYGLVGALGPTTAVPVIDVMAGIRTLDVHRSDASFARMPLAELCTHGFEMAIRRGLEQGLAEDFLGHPAYAAYASERQAMGLELEHHHHHH”: the protein production result is reported as “failed”.
As for “METLDNHDQGFCRQVPRQAVCGFSRRTGWGGAAIFVMLMTLALAAPVQAQSLRQGVSAYQRQDYVAASRIFIPLAERGNAAAQTYLGLLFETGRGLPQNYTEAAMWYRRAAEQGDSRAQYSLGLLYDRGFGVPQDVVEASKWLNLSTAAAPPRAREARVRIRDAVTTKMTRGEIAQARLRALEWAPSREH”, the entry is “failed”.
Under “METNQLRGIFYMMAAMLLISVQEALAKYLGQALPVAQVVWARYLGHLVLMIILLWPKNGMSLLKTNKLFIQIARSLILLIDTVLFFFGLTMLGLAEATAIFFTVPLLVLLLSIPLLGERVSASSIVAVIVGFIGTLIIVRPGINGLGSSDLGIGALFIFGAACCTAIYNVTTRKLSASEPIPVTLFYTAIVGAVVTSLFLPFIWETPTSLEVWAALIFIGLFGGSAHSLIIISHKYAAATTVAPFIYSQIFWALGLGWLMFGELPDFYVYFGGAIVISSGLYLFYHGRTRVNTASQQLGKDPLLVNAAKIKALQNRP” stands “failed”; under “METPKGTIIFTTVGRTHYGFDVFSLNIATSVERRLTDGVSVNFNAQFVNDKSDDVVFVSERNGSARIYKTRSGISKPEQIPGAPESYFHDRPIITQNNRLYFISAHEQPDRYFKNWSALYTVELNSAKREVTRVTPPDTADFSPAVSQSGDFLAVASYGTRSWGGEFHEINTDITVFKASKPETRVVICERGGWPTWSGDSTVFFHHQADDGWWSIFRVDIPENFTEYTDFPITPIRVTPSGLHCFTPAAFRDGKRIALATRRRGVNHRHIEIYDLENTTFQPVTESLNPSFHHYNPFVSPDSEFLGYHRFRGESTQGESIVPNIESIVSPIKTLRLLRINGSFPSSSPNGDLIALNSDFDINGGIKVSKSDGSKRWTLIKDRTAFYNSWSPTERHVIYTSLGPIFSPARIAVQIARIKFDPSDLTADKEDLPCDVKILTLENTGNNAFPSCSPDGKSIVFRSGRSGHKNLYIVDAVNGESNGGGIRRLTDGPWIDTMPCWSPKGDLIGFSSNRHNPENTAVFGAYVVRPDGTGLRRIQISGPEGSEEAARERVNHVSFNKDGDWLVFAANLSGVTAEPVTMPNQFQPYGDLYVVKLDGTGLRRLTWNGYEDGTPTWHTADELDLSQLNLNGQDGDKLEGQFEEPLWISCDI”, “failed”; under “METQFHGGDGEDPWLARDKLYHVIFCFSISLIFSTLASFSRYSFLRRHSIWIGSAFSLAAGAAKEAADQIGIFPSAGASVRDAVADAIGVVIAALVLLLWKSRRSRTRPILPI”, “failed”.
With “METRAAENTAIFMCKCCNLFSPNQSELLSHVSEKHMEEGVNVDEIIIPLRPLSTPEPPNSSKTRDEFLVMKRKRGRPKGSTKKSSTEEELAENIVSPTEDSPLAPEEGNSLPPSSLECSKCCRKFSNTRQLRKHICIIVLNLGEEEGEAGNESDLELEKKCKEDDREKASKRPRSQKTEKVQKISGKEARQLSGAKKPIISVVLTAHEAIPGATKIVPVEAGPPETGATNSETTSADLVPRRGYQEYAIQQTPYEQPMKSSRLGPTQLKIFTCEYCNKVFKFKHSLQAHLRIHTNEKPYKCPQCSYASAIKANLNVHLRKHTGEKFACDYCSFTCLSKGHLKVHIERVHKKIKQHCRFCKKKYSDVKNLIKHIRDAHDPQDKKVKEALDELCLMTREGKRQLLYDCHICERKFKNELDRDRHMLVHGDKWPFACELCGHGATKYQALELHVRKHPFVYVCAVCRKKFVSSIRLRTHIKEVHGAAQEALVFTSSINQSFCLLEPGGDIQQEALGDQLQLVEEEFALQGVNALKEEACPGDTQLEEGRKEPEAPGEMPAPAVHLASPQAESTALPPCELETTVVSSSDLHSQEVVSDDFLLKNDTSSAEAHAAPEKPPDMQHRSSVQTQGEVITLLLSKAQSAGSDQESHGAQSPLGEGQNMAVLSAGDPDPSRCLRSNPAEASDLLPPVAGGGDTITHQPDSCKAAPEHRSGITAFMKVLNSLQKKQMNTSLCERIRKVYGDLECEYCGKLFWYQVHFDMHVRTHTREHLYYCSQCHYSSITKNCLKRHVIQKHSNILLKCPTDGCDYSTPDKYKLQAHLKVHTALDKRSYSCPVCEKSFSEDRLIKSHIKTNHPEVSMSTISEVLGRRVQLKGLIGKRAMKCPYCDFYFMKNGSDLQRHIWAHEGVKPFKCSLCEYATRSKSNLKAHMNRHSTEKTHLCDMCGKKFKSKGTLKSHKLLHTADGKQFKCTVCDYTAAQKPQLLRHMEQHVSFKPFRCAHCHYSCNISGSLKRHYNRKHPNEEYANVGTGELAAEVLIQQGGLKCPVCSFVYGTKWEFNRHLKNKHGLKVVEIDGDPKWETATEAPEEPSTQYLHITEAEEDVQGTQAAVAALQDLRYTSESGDRLDPTAVNILQQIIELGAETHDATALASVVAMAPGTVTVVKQVTEEEPSSNHTVMIQETVQQASVELAEQHHLVVSSDDVEGIETVTVYTQGGEASEFIVYVQEAMQPVEEQAVEQPAQEL”, the protein production entry was “not failed”.
As for “METRAHHVLIGLFTVIVVAGALLFGLWLAKSSVDSAFQDYQIVFNEAVSGLSKGSSVQYSGIKVGDVVNLRLDPKDPRRVLAQIRLGSETPIKEDTQAKLALTGITGTSIIQLSGGTPQSPTLKGKDGELPTIIASPSPIARLLNNSNDLMTGVNLLLHNANRMFSPDNVARVSSTLDNLQKTSASIAEQRDDLRQLMQQLGSISKQTGAMLEQTTALMRNANGLLNDQGKQMFGSAEHAMRSLEQSSATLNKLLSDNQDSLNNGMQGLNGLAPAVRELRETLSSLRAITRRLEANPGGYLLGNEKNKEFTPLEHHHHHH”, the entry is “not failed”; as for “METSLISPMKENNTAQPQQREENTQQNLNAAVPIKQQSPGLLPEALEVGVKPDPASQILATQEIENPVAGFEGDSDKFHISTDEMAEHLQASDLWYCPDGSFVKKIIVHGHGLDKPKLGSKCRVLALGFPFGSGMPEGWTELTIGTGQWREKTWGELTEKCLESMRQGEEAKIHLPGSSTPLAKLRLDSFTNGRDSWELEAVEKEALAKEEHRRGTELFRAGNPQGAARCYGRALRLLLTLPPPGPPERTILHANLAACQLLLGHPQLAAQSCDRVLEREPGHLKALYRRGVAQAALGDLDKATADLKKVLAVDPKNRAAKEELGKVVIQGKIQDAGLARGLRKMFS”, “failed”; as for “METWITSIMADFGYIGIFLLIMIENLFPPIPSEIILTFGGFMTTVSSLNVVMVIIVATLGSVVGAILLYKVASYFGKERLTHIVLKYGRVLRLKESDIERAESFFLKYGSWAVFLCRMIPLIRSLISIPAGMTKMKMSRFLILTTAGSLLWNTVLIGLGALLGESWGEIVVFMDSFSTVIYSIIAVITLLGLGFFFRARFKKTLDEE”, “failed”.
Under “MEVAPSFSSVLKDCAVIEGQDFVLQCSVRGTPVPRITWLLNGQPIQYARSTCEAGVAELHIQDALPEDHGTYTCLAENALGQVSCSAWVTVH” stands “not failed”.
